Test results published in patent US20050266242A1.

Target: biotinylated NM^K184C seed (Saccharomyces cerevisiae) (UniProt P05453)
Assay: capture of biotinylated seed (50% w/w) on Streptavidin-coated Dynabeads, SDS wash, scintillation counting

Sequence of biotinylated NM^K184C seed (Saccharomyces cerevisiae) (P05453 1-253 K184C): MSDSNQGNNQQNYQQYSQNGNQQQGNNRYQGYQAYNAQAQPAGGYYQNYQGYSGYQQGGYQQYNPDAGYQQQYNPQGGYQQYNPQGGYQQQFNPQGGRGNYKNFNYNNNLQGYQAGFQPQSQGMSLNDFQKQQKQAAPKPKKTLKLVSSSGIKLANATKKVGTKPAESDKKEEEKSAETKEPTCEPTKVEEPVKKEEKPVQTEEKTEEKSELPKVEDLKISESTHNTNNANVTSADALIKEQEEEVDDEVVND

Substance: NM^T158C-iodo[1-14C]acetamide (from UniProt P05453 1-253)
- fraction of seed-bound NM soluble in SDS at early time points: 50%
